Measurements reported in patent publication US20100081611A1.

Target: pre-assembled ICN-CSL complex (UniProt P46531)
Experiment: surface plasmon resonance, peptide immobilized, pre-assembled ICN-CSL complex

Sequence of pre-assembled ICN-CSL complex (P46531 1760-2126, chain 1 of 2): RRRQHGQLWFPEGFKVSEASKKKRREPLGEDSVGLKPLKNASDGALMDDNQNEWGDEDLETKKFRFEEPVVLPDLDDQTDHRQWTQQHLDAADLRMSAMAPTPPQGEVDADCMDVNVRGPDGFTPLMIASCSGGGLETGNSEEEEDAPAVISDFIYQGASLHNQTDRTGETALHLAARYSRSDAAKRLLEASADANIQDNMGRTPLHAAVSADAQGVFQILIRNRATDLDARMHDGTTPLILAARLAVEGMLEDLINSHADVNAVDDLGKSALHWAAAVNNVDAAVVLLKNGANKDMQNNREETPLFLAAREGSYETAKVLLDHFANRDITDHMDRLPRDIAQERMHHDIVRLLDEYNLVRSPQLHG
Sequence of pre-assembled ICN-CSL complex (Q06330 23-449, chain 2 of 2, further chain): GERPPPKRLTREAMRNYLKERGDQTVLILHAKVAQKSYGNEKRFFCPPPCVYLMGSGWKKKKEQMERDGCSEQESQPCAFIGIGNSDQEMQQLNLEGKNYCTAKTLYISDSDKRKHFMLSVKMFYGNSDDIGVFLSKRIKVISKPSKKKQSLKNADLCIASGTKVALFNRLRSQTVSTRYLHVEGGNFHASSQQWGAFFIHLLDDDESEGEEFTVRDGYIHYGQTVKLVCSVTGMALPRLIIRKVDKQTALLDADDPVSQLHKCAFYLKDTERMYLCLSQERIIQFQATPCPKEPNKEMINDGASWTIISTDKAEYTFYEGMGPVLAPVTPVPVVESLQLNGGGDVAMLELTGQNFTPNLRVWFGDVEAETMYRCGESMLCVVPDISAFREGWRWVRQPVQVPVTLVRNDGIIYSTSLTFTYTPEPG

- Kd: 98 nM
Substance: SAHN1 (REM-G1), internally cross-linked (stapled) MAML-1 polypeptide
